The values below come from the RNAGym collection of RNA variant scans (doi:10.7554/elife.90254).

B1: LINE1-full (parent)
chain: UACGUAGGUGGUUUUCCCCUGAUAGUGCUAAGGGGGCCUGGAAGUUUGGACUGGGCAGAGCUCAACACAGCGUGGCAAAGUGGCUGUGGCUAGACUGCCUCUCUGGAUUCCUCGUCACUCAGCAGGGCAUCUCUGAGAGAAAUGCC

The variants in the data set derive from B1. The experiment in a line: self-cleavage, relative activity (ratio to wild type); higher = more cleavage; in vitro, sequencing; the parent is a self-cleaving ribozyme.
Turning to UACGUAGGUGGUGUUCCCCUGAUAGUGCUAAGGGGGCCUGGAAGUUUGGACUGGGCAGAGCUCAACACAGCGUGGCAAAGUGGCUGUGGCUGGACUGCCUCUCUGGAUUCCUCGUCACUCAGCAGGGCAUCUCUGAGAGAAAUGCC [U13G A92G], the self-cleavage was determined as 0.

Take UACGUAGGUGGUGUUCCCCUGAUAGUGCUAAGGGGGCCUGGAAGUUUGGACUGGGCAAAGCUCAACACAGCGUGGCAAAGUGGCUGUGGCUAGACUGCCUCUCUGGAUUCCUCGUCACUCAGCAGGGCAUCUCUGAGAGAAAUGCC [U13G G58A]: the self-cleavage worked out at 0.17.

Regarding UACGUAGGUGGUGUUCCCCUGAUAGUGCUAAGGGGGCCUGGAAGUUUGGACUGGGCAGAGCUCAACACAGCGUGGCAAAGUGGCUGUGGCUAGACUGCCUCUCUGGAUUCCUCGUCACUCAGCAGGGCAUCUCUGAGAGAAAUGCC [U13G], the self-cleavage came to 0.93.

In the case of UACGUAGGUGGUGUUCCCCUGAUAGUGCUAAGGGGGCCUGGAAGUUUGGACUGGGCAGAGCUCAACUCAGCGUGGCAAAGUGGCUGUGGCUAGACUGCCUCUCUGGAUUCCUCGUCACUCAGCAGGGCAUCUCUGAGAGAAAUGCC [U13G A67U], the self-cleavage amounted to 0.13.

UACGUAGGUGGUGUUCCCCUGAUAGUGCUAAGGGGGCCUGGAAGUUUGGACUGGGCAGAGCUCAACGCAGCGUGGCAAAGUGGCUGUGGCUAGACUGCCUCUCUGGAUUCCUCGUCACUCAGCAGGGCAUCUCUGAGAGAAAUGCC [U13G A67G]: the self-cleavage came to 1.9.

As to UACGUAGGUGGUCUUCCCCUGAUAGUGCUAAGGGGGCCUGGAAGUUUGGACUGGGCAGAGCUCAACACAGCGUGGCAAAGUGGCAGUGGCUAGACUGCCUCUCUGGAUUCCUCGUCACUCAGCAGGGCAUCUCUGAGAGAAAUGCC [U13C U85A], the self-cleavage turned out to be 0.13.

On to UACGUAGGUGGUGUUCCCCUGAUAGUGCUAAGGGGGCCUGGAAGUUUGGACUGGGCAGAGCUCAACACAGCGUGGCAAAGUGGCUGUGGCUAGACUGCCUCUCUGGAUUCCUUGUCACUCAGCAGGGCAUCUCUGAGAGAAAUGCC [U13G C113U], for which the self-cleavage came out at 1.11.

In the case of UACGUAGGUGGUCUUCCCCUGAUAGUGCUAAGGGGGCCUGGAAGUUUGGACUGGGCAGAGCUCAACACAGCGUGGCAAAGUGGCUGUGGCUAGACGGCCUCUCUGGAUUCCUCGUCACUCAGCAGGGCAUCUCUGAGAGAAAUGCC [U13C U96G], the self-cleavage came out at 0.06.

For UACGUAGGUGGUGUUCCCCUGAUAGUGCUAAGGGGGCCUGGAAGUUUGGACUGGGCAGAGCUCAACACAGCGUGGCAAAGUGGCUGUGGCUAGACUGCCUCUCUGGAUUCCUCAUCACUCAGCAGGGCAUCUCUGAGAGAAAUGCC [U13G G114A], the self-cleavage is 0.64.

On to UACGUAGGUGGUCUUCCCCUGAUAGUGCUAAGGGGGCCUGGAAGUUUGGACUGGGCAGAGCUCAACACAGCGUGGCAAAGUGGCUGUGGCUAGACUGCCUCACUGGAUUCCUCGUCACUCAGCAGGGCAUCUCUGAGAGAAAUGCC [U13C U102A], for which the self-cleavage is 1.73.

For UACGUAGGUGGUCUUCCCCUGAUAGUGCUAAGGGGGCCUGGAAGUUUGGACUGGGCAGAGCUCAACACAGCGUGGCAAAGUGGCUGUGGCUAGACUGCCUCCCUGGAUUCCUCGUCACUCAGCAGGGCAUCUCUGAGAGAAAUGCC [U13C U102C], the self-cleavage is 1.4.

Take UACGUAGGUGGUCUUCCCCUGAUAGUGCUAAGGGGGCCUGGAAGUUUGGACUGGGCAGAGCUCAACACAGCGUGGCAAAGUGGCUGUGGCUAGACUGCCUCUCUGGAUUCCUCGUCACUCAGCAGGGCAUCUCUGAGAGAAAAGCC [U13C U143A]: the self-cleavage is 1.17.

Regarding UACGUAGGUGGUGUUCCCCUGAUAGUGCUAAGGGGGCCUGGAAGUUUGGACUGGGCAGAGCUCAACACAGCGUGGUAAAGUGGCUGUGGCUAGACUGCCUCUCUGGAUUCCUCGUCACUCAGCAGGGCAUCUCUGAGAGAAAUGCC [U13G C76U], the self-cleavage turned out to be 1.47.

Regarding UACGUAGGUGGUCUUCCCCUGAUAGUGCUAAGGGGGCCUGGAAGUUUGGACUGGGCAGAGCUCAACACAGCGUGGCAAAGUGGCUGUGGCUAGACUGCCUCUCUGGAUUCCUCGUCACUCAGCAGGGCAUCUCAGAGAGAAAUGCC [U13C U134A], the self-cleavage amounted to 1.03.

Take UACGUAGGUGGUCUUCCCCUGAUAGUGCUAAGGGGGCCUGGAAGUUUGGACUGGGCAGAGCUCAACACAGCGUGGCAAAGUGGCUGUGGCUAGACUGCCUCUCUGGAUUCCUCGUCACUCAGCAGGGCAUCUCGGAGAGAAAUGCC [U13C U134G]: the self-cleavage came out at 1.04.

For the variant UACGUAGGUGGUGUUCCCCUGAUAGUGCUAAGGGGGCCUGGAAGUUCGGACUGGGCAGAGCUCAACACAGCGUGGCAAAGUGGCUGUGGCUAGACUGCCUCUCUGGAUUCCUCGUCACUCAGCAGGGCAUCUCUGAGAGAAAUGCC [U13G U47C], the self-cleavage amounted to 1.17.

On to UACGUAGGUGGUCUUCCCCUGAUAGUGCUAAGGGGGCCUGGAAGUUUGGACUGGGCAGAGCUCAACACAGCGUGGCAAAGUGGCUGUGGCUAGACUGCCUCUCUGGAUUCCUCGUCACUCAGCAGGGCAACUCUGAGAGAAAUGCC [U13C U130A], for which the self-cleavage amounted to 1.6.

Take UACGUAGGUGGUCUUCCCCUGAUAGUGCUAAGGGGGCCUGGAAGUUUGGACUGGGCAGAGCUCAACACAGCGUGGCAAAGUGGCUGUGGCUAGACUGCCUCUCUGGAUUCCUCGUCACUCAGCAGGGCACCUCUGAGAGAAAUGCC [U13C U130C]: the self-cleavage is 1.2.

For UACGUAGGUGGUCUUCCCCUGAUAGUGCUAAGGGGGCCUGGAAGUUUGGACUGGGCAGAGCUCAACACAGCGUGGCAAAGUGGCUGUGGCAAGACUGCCUCUCUGGAUUCCUCGUCACUCAGCAGGGCAUCUCUGAGAGAAAUGCC [U13C U91A], the self-cleavage was determined as 0.85.

For UACGUAGGUGGUCUUCCCCUGAUAGUGCUAAGGGGGCCUGGAAGUUUGGACUGGGCAGAGCUCAACACAGCGUGGCAAAGUGGCUGUGGCCAGACUGCCUCUCUGGAUUCCUCGUCACUCAGCAGGGCAUCUCUGAGAGAAAUGCC [U13C U91C], the self-cleavage was determined as 0.99.

With UACGUAGGUGGUCUUCCCCUGAUAGUGCUAAGGGGGCCUGGAAGUUUGGACUGGGCAGAGCUCAACACAGCGUGGCAAAGUGGCUGUGGCUAGACUGCCUCUCUGGAUUCCUCGUCACCCAGCAGGGCAUCUCUGAGAGAAAUGCC [U13C U119C], the self-cleavage was 1.54.

Consider UACGUAGGUGGUGUUCCCCUGAUAGUGCUAAGGGGGCCUGGAAGCUUGGACUGGGCAGAGCUCAACACAGCGUGGCAAAGUGGCUGUGGCUAGACUGCCUCUCUGGAUUCCUCGUCACUCAGCAGGGCAUCUCUGAGAGAAAUGCC [U13G U45C], for which the self-cleavage is 0.78.

With UACGUAGGUGGUGUUCCCCUGAUAGUGCUAAGGGGGCCUGGAAGUUUGGACUGGGCAGAGCUCAACACAGCGUGGCAAAGUGGCUGUGGCUAGGCUGCCUCUCUGGAUUCCUCGUCACUCAGCAGGGCAUCUCUGAGAGAAAUGCC [U13G A94G], the self-cleavage amounted to 0.37.

For the variant UACGUAGGUGGUCUUCCCCUGAUAGUGCUAAGGGGGCCUGGAAGUUUGGACUGGGCAGAGCUCAACACAGCGUGGCAAAGUGGCUGUGGCUAGACUGCCUCUCUGGAUUCCCCGUCACUCAGCAGGGCAUCUCUGAGAGAAAUGCC [U13C U112C], the self-cleavage was found to be 1.35.

As to UACGUAGGUGGUCUUCCCCUGAUAGUGCUAAGGGGGCCUGGAAGUUUGGACUGGGCAGAGCUCAACACAGCGUGGCAAAGUGGCUGUGGCUAGACUGCCUCUCUGGAUUCCGCGUCACUCAGCAGGGCAUCUCUGAGAGAAAUGCC [U13C U112G], the self-cleavage was 1.13.

In the case of UACGUAGGUGGUGUUCCCCUGAUAGUGCUAAGGGGGCCCGGAAGUUUGGACUGGGCAGAGCUCAACACAGCGUGGCAAAGUGGCUGUGGCUAGACUGCCUCUCUGGAUUCCUCGUCACUCAGCAGGGCAUCUCUGAGAGAAAUGCC [U13G U39C], the self-cleavage came out at 0.7.

Take UACGUAGGUGGUGUUCCCCUGAUAGUGCUAAGGGGGCCUGGAAGUUUGGACUGGGCAGAGCUCAACACUGCGUGGCAAAGUGGCUGUGGCUAGACUGCCUCUCUGGAUUCCUCGUCACUCAGCAGGGCAUCUCUGAGAGAAAUGCC [U13G A69U]: the self-cleavage was 0.39.

Consider UACGUAGGUGGUCUUCCCCUGAUAGUGCUAAGGGGGCCUGGAAGUUUGGACUGGGCAGAGCUCAACACAGCGUGGCAAAGCGGCUGUGGCUAGACUGCCUCUCUGGAUUCCUCGUCACUCAGCAGGGCAUCUCUGAGAGAAAUGCC [U13C U81C], for which the self-cleavage turned out to be 1.05.

As to UACGUAGGUGGUGUUCCCCUGAUAGUGCUAAGGGGGCCUGGAAGUUUGGACUGGGCAGAGCUCAACACAGCGUGGCAAUGUGGCUGUGGCUAGACUGCCUCUCUGGAUUCCUCGUCACUCAGCAGGGCAUCUCUGAGAGAAAUGCC [U13G A79U], the self-cleavage amounted to 0.44.

Regarding UACGUAGGUGGUGUUCCCCUGAUAGUGCUAAGGGGGCCUGGAAGUUUGGACUGGGCAGAGCUCAACACAGCGUGGCAAAGUGGCUGUGGCUAGACUGCCUCUCUGGAUUCCUCGUCACUCAGCAGGGCGUCUCUGAGAGAAAUGCC [U13G A129G], the self-cleavage is 1.46.

On to UACGUAGGUGGUGUUCCCCUGAUAGUGCUAAGGGGGCCUGGAAGUUUGGACUGGGCAGAGCUCAACACAGCGUGGCUAAGUGGCUGUGGCUAGACUGCCUCUCUGGAUUCCUCGUCACUCAGCAGGGCAUCUCUGAGAGAAAUGCC [U13G A77U], for which the self-cleavage is 1.31.

For UACGUAGGUGGUCUUCCCCUGAUAGUGCUAAGGGGGCCUGGAAGUUUGGACUGGGCAGAGCUCAACACAGCGUGGCAAAGUGGCUGUGGCUAGACUGCCUCUCUGGAUUCCUCGUCACUCAGCAGGGCAUCACUGAGAGAAAUGCC [U13C U132A], the self-cleavage stood at 1.3.

Regarding UACGUAGGUGGUCUUCCCCUGAUAGUGCUAAGGGGGCCUGGAAGUUUGGACUGGGCAGAGCUCAACACAGCGUGGCAAAGUGGCUGUGGCUAGACUGCCUCUCUGGAUUCCUCGUCACUCAGCAGGGCAUCCCUGAGAGAAAUGCC [U13C U132C], the self-cleavage was 1.2.

In the case of UACGUAGGUGGUCUUCCCCUGAUAGUGCUAAGGGGGCCUGGAAGUUUGGACUGGGCAGAGCUCAACACAGCGUGGCAAAGUGGCUGUGGCUAGACUGCCCCUCUGGAUUCCUCGUCACUCAGCAGGGCAUCUCUGAGAGAAAUGCC [U13C U100C], the self-cleavage was 1.4.

For UACGUAGGUGGUCUUCCCCUGAUAGUGCUAAGGGGGCCUGGAAGUUUGGACUGGGCAGAGCUCAACACAGCGUGGCAAAGUGGCUGUGGCUAGACUGCCACUCUGGAUUCCUCGUCACUCAGCAGGGCAUCUCUGAGAGAAAUGCC [U13C U100A], the self-cleavage is 0.7.

Take UACGUAGGUGGUCUUCCCCUGAUAGUGCUAAGGGGGCCUGGAAGUUUGGACUGGGCAGAGCUCAACACAGCGUGGCAAAGUGGCUGGGGCUAGACUGCCUCUCUGGAUUCCUCGUCACUCAGCAGGGCAUCUCUGAGAGAAAUGCC [U13C U87G]: the self-cleavage worked out at 0.21.

For UACGUAGGUGGUCUUCCCCUGAUAGUGCUAAGGGGGCCUGGAAGUUUGGACUGGGCAGAGCUCAACACAGCGUGGCAAAGUGGCUGUGGCUAGACUGCCUCUCUGGAUUCCUCGCCACUCAGCAGGGCAUCUCUGAGAGAAAUGCC [U13C U115C], the self-cleavage came out at 1.53.

UACGUAGGUGGUCUUCCCCUGAUAGUGCUAAGGGGGCCUGGAAGUUUGGACUGGGCAGAGCUCAACACAGCGUGGCAAAGUGGCUGUGGCUAGACUGCCUCUCUGGAUUCCUCGACACUCAGCAGGGCAUCUCUGAGAGAAAUGCC [U13C U115A]: the self-cleavage is 1.3.

Take UACGUAGGUGGUGUUCCCCUGAUAGUGCUAAGGGGGCCUGGAAGUUUGGACUGGGCAGAGCUCAACACAGCGUGGCAAAGUGGCUGUGGCUAGACUGCCUCUCUGGAUUCCUCGUCACUCGGCAGGGCAUCUCUGAGAGAAAUGCC [U13G A121G]: the self-cleavage amounted to 1.1.
